Source: the supplement of paper PMC12042874
± gives the uncertainty stated by the source.

Experiment: amyloid nucleation score (Sup35N fusion, yeast selection) (log enrichment); library NNK1; higher = more nucleation; inactive = no reads after selection
Method in brief: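 On medium lacking adenine and uracil, psi-negative yeast expressing peptides of 20 random codons fused to Sup35N were grown 7 days at 30°C after a 24-hour induction with 100 μM copper sulfate. Illumina sequencing of input and output plasmid inserts gave the reads, and sequences under 100 input reads were excluded. The nucleation score is the DiMSum log enrichment of output over input reads, centred on the mode score of non-aggregating sequences.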

Substance | amyloid nucleation score
NMEITYLSVFVAVYVHLHFF | -0.728 ± 0.88
NMGNLFNICETGNLL | 0.296 ± 0.66
NMGTVMYGVIQACRAHVNVV | 0.22 ± 0.45
NMSINI | inactive
NMVGFILLGY | -0.179 ± 0.29
NNCAFYSLRWRKLWLGGMHV | 8.364 ± 0.056
NNCYLDTSLSNLIRDGSSPV | -0.453 ± 0.64
NNFSSNWWLELWYRYFVYPI | 0.666 ± 0.75
NNMSIWGMTVTEYLFITNMN | 0.643 ± 0.53
NNRKYLGRNMAANWGAWFKR | -0.395 ± 0.36
NPGAYKYHSLSYTSRGGMFV | 0.486 ± 0.38
NPGEWYNSYRSNGEGMRLYE | -0.288 ± 0.88
NPLVFRN | -0.122 ± 0.61
NPWVWTLSIEQGRNE | 0.074 ± 0.34
NRAMQVFPI | inactive
NRHEILHIVG | 1.67 ± 0.63
NRHVSRRRHSEISLVRKGGA | -0.313 ± 0.33
NRNTRLMWNDTVWGIRAARY | -0.279 ± 0.85
NRPHTTYFFSFKSQF | 5.61 ± 0.063
NRSWYIRVLHRATSVSLKSF | -0.226 ± 0.39
NRYPTLFWCVRNRVWECLRV | 0.392 ± 0.46
NRYQRYVPTIEMEPNSSYGN | inactive
NSCRMPYSGV | inactive
NSCWVEKSNTV | 0.043 ± 0.62
NSGNICSVGCGL | 3.09 ± 0.2

Substance | amyloid nucleation score
NSHLVFMGMLFLRISDDFVR | -0.083 ± 1.4
NSIHFCGGGRLHSAKLDVSS | inactive
NSIVVTT | 0.114 ± 0.54
NSIVWSMC | 0.409 ± 0.42
NSLCSP | -1.31 ± 1.9
NSMANREYGYIELDWV | inactive
NSRGVSSKYCFGKRIPDGGL | 0.117 ± 0.3
NSVHWTASGSDSIPTAIESR | 1.58 ± 0.2
NSVISMAPYLFTCIENVKSK | 0.315 ± 0.42
NSVIWRMG | 1.42 ± 0.3
NSVWHGLYCSQQRSLRTTRL | 0.116 ± 0.29
NSWQLFYLCSQLIRKSSTLC | 0.029 ± 0.37
NTDSLLFNLISLMRNRERFK | 0.351 ± 0.54
NTIRFAHLLV | -0.318 ± 0.35
NTTHDGLRCEIRVWSENRRR | 1.39 ± 0.3
NVCLLGRLRFYVVLTGIRDL | -0.34 ± 0.74
NVFCPVHENVSRLLQRHTRL | 1.1 ± 0.53
NVGSLVHAAW | -0.613 ± 1.3
NVGVMGFISASVWLFCWGIF | -0.783 ± 0.33
NVHSYRSLRLDELVMKSMCE | 2.66 ± 0.2
NVNCNRYSWMGDHSCEGRQP | -0.128 ± 0.57
NVNEDRPAGALVLEFLNRTL | 1.47 ± 0.69
NVNHSPSGMARRGSHRYKNS | -0.218 ± 0.34
NVSSCDW | -1.22 ± 0.71
NVSYRSYRFVHWVNLVGSMA | inactive

Substance | amyloid nucleation score
NVWIYPDSMKSNQTDLG | 1.26 ± 0.74
NWGAISISDRGPQKTDTAWT | -0.048 ± 0.48
NWGVIVMFTYYRSSSGNLAC | 1.35 ± 0.45
NWGVSNRVVWGRVPMLSVPH | -0.284 ± 0.98
NWHAVNCRSPST | 1.07 ± 0.51
NWTVFLATNGF | -0.095 ± 0.85
NWVLGVAYRRLRHKCSMYRV | 0.387 ± 0.67
NWVVFRMRHRLQTSFWGCGE | 0.123 ± 0.57
NYEQYLGCSNTEERSSSCTL | -0.286 ± 1.2
NYNQGRGYRSVSSNIIEGDK | 1.74 ± 0.49
NYNVTNNALADR | -0.368 ± 1.7
NYRFVCEPYFYSNCPPAQWT | 0.02 ± 0.59
NYTNCTSTDRI | 0.907 ± 0.56
PARATMSSLRPTSNLPFFPA | -0.459 ± 1.1
PASSCAVVELGMKVGEGGIP | -0.386 ± 0.95
PAVCLCNGRMDVSKNLWLCF | 7.445 ± 0.061
PAYRRCRPFFVHAHRFMGST | 0.681 ± 0.44
PCSQPFT | -0.154 ± 0.45
PCTLGFVSSPSDG | 0.524 ± 0.46
PCVQSHMCYYNMSGITKGFR | -0.332 ± 0.43
PCWWQFY | 0.167 ± 0.64
PDAFKSLLLERRAWIKFVSK | 1.15 ± 0.7
PDDSKFSNV | 0.902 ± 0.88
PDRGEKLRRLNVWNKPCFGT | 0.829 ± 0.93
PEAGGLHARYVYFVWNSAPC | 2.69 ± 0.28

Substance | amyloid nucleation score
PERTSMGSKFTTDN | -0.382 ± 0.43
PFCSGALLARLG | 0.047 ± 0.77
PFFRVVY | inactive
PFGLRYQLRIRHYTMIEELS | 1.88 ± 0.29
PFHLF | 0.831 ± 0.39
PFIARAFKLMLAWVLFCRAA | 0.171 ± 0.75
PFRMQNDIVRDQYSVKLQWF | 3.29 ± 0.17
PFSDSVARSDGCGVQRV | -0.444 ± 1.2
PGLMDLSVCKKCWNCCYTYD | -0.294 ± 0.65
PGSIYMSPGCGYIQAVRDHI | -0.205 ± 0.35
PGSKAWFGSLISCLTPWVLR | -0.563 ± 0.85
PGVPPPKRA | 0.294 ± 0.66
PHGKRPGHFLKVLLAFSWRW | 0.038 ± 0.56
PHPPAPKK | 0.067 ± 0.59
PIDGTFL | -0.69 ± 0.62
PILFYDQSFLILWQINGAGG | inactive
PIWLTDKFGG | -0.24 ± 0.61
PIYVAGLGIVI | -0.308 ± 1.1
PKDLIVTTLHAWCDRHSYT | -0.49 ± 0.76
PKVWGGIHYFHFVTEYSTIS | 0.309 ± 0.29
PLCEKSGCSLNFDEERQTLW | 1.43 ± 0.51
PLNKSEAESLFKLLTLLDRN | -1.39 ± 0.46
PLRNGWFLRKLRS | -1.35 ± 1.3
PLTFSCSLGKGFTWYFCLNV | -0.196 ± 0.45
PLVGGRNCGKDFPSLTDTPV | -0.06 ± 0.27

Substance | amyloid nucleation score
PLYGASDK | -0.277 ± 0.97
PMFSSGLT | 0.099 ± 0.42
PMHSLTASYNDSHFRNRGVM | inactive
PMTPTCPLTNASTCPSTDRR | -0.644 ± 0.74
PNIFCLQRSPNRP | -0.331 ± 0.31
PQPYTRNIERLAYVFTLDMP | -0.21 ± 0.27
PRCNSFNSYCFA | 0.224 ± 0.29
PRIRHHSLYCVVYWFIIDRT | inactive
PRNVFMSKTNNHFQRAFSVT | 0.925 ± 0.69
PSHYWNRVLLIWRLSGCVVY | -0.145 ± 0.29
PSLASCSRL | 0.28 ± 0.41
PSMARPAARTHVDNNRWR | -0.051 ± 0.56
PSPQWYGDDNVTSRWRLLAV | 0.548 ± 0.28
PSRWIAVPSMEVKVL | 0.16 ± 1.1
PSSNLRFFTLNFAFLVPISS | -0.521 ± 0.64
PTSSMI | 0.488 ± 1
PTYTGVLSLN | 0.341 ± 0.56
PVGVKGVQMVLS | -0.226 ± 0.83
PVLKPGFL | -0.266 ± 0.5
PVMSRPAARMMGDSCHWSNR | -0.585 ± 0.8
PVVGRARRYRREAAENVVLD | 0.943 ± 0.6
PWRCLM | inactive
PWTTG | 0.298 ± 0.24
PWYTRLRRK | -0.338 ± 1.4
PYHEMGIYYLGGLYSK | 0.743 ± 1.1

Substance | amyloid nucleation score
PYKIEWLSRTHTAGSYSLQP | -0.135 ± 0.44
PYLGNLNSLQGFYLS | 0.176 ± 0.78
PYLNY | -0.153 ± 0.43
PYRYKSGWATTQSLRREQLD | -0.743 ± 1.3
PYSLQSTLHVRER | 0.485 ± 0.35
PYVSHCGIHFFGWFSWSRAS | 0.583 ± 0.46
PYYFEGGEAQTPRHSDGQWM | -0.769 ± 0.56
QAFISFVVSFRWHLTCRS | 1.18 ± 0.64
QAHLNLVSRIIIMWS | 0.067 ± 0.79
QAYLKVQVWLDRRNSI | inactive
QCSSANTSGIAETSTSLGRT | -0.244 ± 1.1
QCVRLDVTT | -2.14 ± 2.1
QDLTEWTYSLAPFMVFHTRP | -0.519 ± 1.2
QDYGDDLRSGFRGYLSSPQG | 0.264 ± 0.32
QFEFNFTKEDQYYEGFPVDW | -0.827 ± 1.7
QFLRALGYAERRVGRRWLGW | -0.065 ± 0.71
QFRCFHLL | -0.026 ± 1.2
QGIEKGFDWKRIFCGELYVQ | -0.065 ± 0.4
QGIVAVLED | inactive
QGKISGNRRSFFWW | -0.765 ± 0.44
QGKKPGGFQNEDMVVVLKWR | -0.601 ± 0.46
QGLAGHLSRRYFY | -1.96 ± 2.1
QHTTVRFRTGDKRNQFLSSI | -0.843 ± 1.1
QISRCILNNPRPCLSF | 1.01 ± 0.9
QISRLKHYQTHVRMLLTLEG | -0.068 ± 0.42

Substance | amyloid nucleation score
QIWTFRGRVLVGHTSREVVG | 0.122 ± 0.24
QKPTMFGA | -0.338 ± 0.28
QKRRKLARLASRYFPS | 0.325 ± 0.57
QKWNMFVSSWVYDRRRTRGC | 0.301 ± 1.1
QLLAVMWKGHHVYRELCGRL | -0.549 ± 0.46
QLRNLFHFYTGITDSRFLLH | 1.93 ± 0.52
QLSFCYHLCWVICEGMVLEV | -0.245 ± 0.42
QLSTISFLQWSGSACSSTVH | -0.49 ± 0.74
QMIMAMNSFLISYLNHMWPG | 2.13 ± 0.1
QMLQVPYQSFVALGVAWVRT | 0.646 ± 0.66
QNRSHKPEFGRMPASQPVTN | 0.447 ± 0.63
QNTSEYSLRRERSR | -0.341 ± 0.5
QNVRSLVHSYLKGTNSSLVG | -0.01 ± 0.74
QPLSLCLVFDCTNISFSFQA | 8.594 ± 0.045
QPPKHMTMYVYVDTHEAVLS | -0.133 ± 0.38
QQGPFVCWIQR | -0.583 ± 1.1
QQLALPPWSCLWQ | 0.095 ± 0.49
QQSFVTSLVMYVDRYRFVQV | 0.809 ± 0.85
QRGAVVQDLAM | 0.728 ± 0.71
QRILTSYGRDMLTSLLRSMP | 1.01 ± 0.58
QRLLTYPLLYVTSNVLRFYR | -0.001 ± 0.7
QRSLMDAPMGKPRESNLLLV | 1.1 ± 0.57
QRSNRGLPYKSRDGI | 0.153 ± 0.39
